Some targets named below: NK1 tachykinin receptor (UniProt P25103); Gq-o5 chimeric G-protein; Gq-i5 chimeric G-protein; NK2 tachykinin receptor (UniProt P21452); Insulin receptor.
Holding throughout (assay): cell-based or functional assay
The target of a further assay is T1, NK3 tachykinin receptor (UniProt P29371).
T1 sequence (looked up): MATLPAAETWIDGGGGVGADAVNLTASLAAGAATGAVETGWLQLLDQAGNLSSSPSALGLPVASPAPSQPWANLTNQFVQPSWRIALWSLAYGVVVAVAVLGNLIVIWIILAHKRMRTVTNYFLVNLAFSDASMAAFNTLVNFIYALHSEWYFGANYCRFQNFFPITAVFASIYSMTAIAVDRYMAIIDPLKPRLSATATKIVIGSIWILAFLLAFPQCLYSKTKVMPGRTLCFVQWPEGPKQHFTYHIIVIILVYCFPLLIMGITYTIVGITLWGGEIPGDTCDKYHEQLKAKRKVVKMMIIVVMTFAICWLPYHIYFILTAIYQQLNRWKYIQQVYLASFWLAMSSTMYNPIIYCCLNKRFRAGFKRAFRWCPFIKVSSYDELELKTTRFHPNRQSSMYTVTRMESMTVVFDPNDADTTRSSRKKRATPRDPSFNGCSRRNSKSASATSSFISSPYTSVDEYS

m4 muscarinic receptor, sequence (P08173 whole entry): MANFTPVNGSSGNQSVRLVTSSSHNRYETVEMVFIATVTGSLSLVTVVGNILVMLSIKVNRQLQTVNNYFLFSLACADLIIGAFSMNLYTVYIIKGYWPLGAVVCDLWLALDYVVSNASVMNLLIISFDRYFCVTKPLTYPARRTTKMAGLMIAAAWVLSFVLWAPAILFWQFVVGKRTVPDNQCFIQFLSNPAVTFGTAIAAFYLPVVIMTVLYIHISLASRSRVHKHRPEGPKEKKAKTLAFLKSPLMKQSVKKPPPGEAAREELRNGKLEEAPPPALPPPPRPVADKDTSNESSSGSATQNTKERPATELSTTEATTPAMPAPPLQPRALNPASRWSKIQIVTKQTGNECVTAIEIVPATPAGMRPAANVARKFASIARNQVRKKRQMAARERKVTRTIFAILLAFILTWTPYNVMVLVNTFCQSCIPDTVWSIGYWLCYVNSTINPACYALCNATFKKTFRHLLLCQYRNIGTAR
NK2 tachykinin receptor, sequence (P21452 whole entry): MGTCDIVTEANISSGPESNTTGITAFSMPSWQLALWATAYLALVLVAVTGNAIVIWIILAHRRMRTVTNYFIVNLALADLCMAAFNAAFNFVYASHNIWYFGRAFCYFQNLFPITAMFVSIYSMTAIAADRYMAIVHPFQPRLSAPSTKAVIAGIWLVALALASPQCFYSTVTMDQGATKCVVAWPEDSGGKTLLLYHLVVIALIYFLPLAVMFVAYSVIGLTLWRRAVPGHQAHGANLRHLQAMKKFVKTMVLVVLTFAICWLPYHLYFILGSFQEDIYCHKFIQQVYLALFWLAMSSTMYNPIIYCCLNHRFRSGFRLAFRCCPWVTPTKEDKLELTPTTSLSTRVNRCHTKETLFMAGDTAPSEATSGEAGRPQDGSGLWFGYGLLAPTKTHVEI
NK1 tachykinin receptor, sequence (P25103 whole entry): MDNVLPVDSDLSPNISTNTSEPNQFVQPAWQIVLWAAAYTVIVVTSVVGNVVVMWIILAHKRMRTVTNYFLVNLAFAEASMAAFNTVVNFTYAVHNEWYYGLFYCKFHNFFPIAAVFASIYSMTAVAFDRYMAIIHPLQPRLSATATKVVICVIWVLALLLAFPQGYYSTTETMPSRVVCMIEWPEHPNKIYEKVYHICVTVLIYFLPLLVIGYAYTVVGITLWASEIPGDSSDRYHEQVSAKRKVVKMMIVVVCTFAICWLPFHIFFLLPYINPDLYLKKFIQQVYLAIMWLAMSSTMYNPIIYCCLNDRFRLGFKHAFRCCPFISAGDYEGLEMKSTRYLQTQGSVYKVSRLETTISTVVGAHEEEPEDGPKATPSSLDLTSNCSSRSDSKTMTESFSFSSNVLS

As for “neurokinin A (from UniProt P20366 98-107) (peptide)”, the EC50, amplification assay (β-galactosidase), Single Receptor Format is 14 nM with NK1 tachykinin receptor and 11 nM in the assay with NK3 tachykinin receptor.

Consider “m4 muscarinic receptor (from UniProt P08173 1-479)”, for which, in the assay with Gq-o5 chimeric G-protein, the ED50 of carbachol for the β-galactosidase response of cells co-expressing m4 and Gq-o5 came to 32 nM. Moreover, in the assay with Gq-i5 chimeric G-protein, the ED50 of carbachol for the β-galactosidase response of cells co-expressing m4 and Gq-i5 is 37 nM.

For “substance P (from UniProt P20366 58-68) (peptide)”, the EC50, amplification assay (β-galactosidase), Single Receptor Format with NK2 tachykinin receptor came to 65 nM; with NK3 tachykinin receptor it was 164 nM.

On to Insulin (ligand), for which, in the assay with Insulin receptor, the EC50, amplification assay (β-galactosidase), Single Receptor Format turned out to be 0.08 nM.

Values taken from patent US20050244862A1.
